Biological target: IDE (UniProt P14735)
Assay: enzyme inhibition (double inhibitor plot); 1x IC50

With Bacitracin the IC50 was 10 µM.

Source: patent publication US20160282364A1, “ASSAY FOR INSULIN-DEGRADING ENZYME (IDE) INHIBITORS” (PRESIDENT AND FELLOWS OF HARVARD COLLEGE, priority 2013, published 2016)
